The chains are these.
B1: E3 ubiquitin-protein ligase RNF146 (Homo sapiens), Q9NTX7 (parent)
chain: MMAGCGEIDHSINMLPTNRKANESCSNTAPSLTVPECAICLQTCVHPVSLPCKHVFCYLCVKGASWLGKRCALCRQEIPEDFLDKPTLLSPEELKAASRGNGEYAWYYEGRNGWWQYDERTSRELEDAFSKGKKNTEMLIAGFLYVADLENMVQYRRNEHGRRRKIKRDIIDIPKKGVAGLRLDCDANTVNLARESSADGADSVSAQSGASVQPLVSSVRPLTSVDGQLTSPATPSPDASTSLEDSFAHLQLSGDNTAERSHRGEGEEDHESPSSGRVPAPDTSIEETESDASSDSEDVSAVVAQHSLTQQRLLVSNANQTVPDRSDRSGTDRSVAGGGTVSVSVRSRRPDGQCTVTEV

In this assay the parent is B1. The conditions noted are these: with parp1_human PARP1, P09874.
Chain of parp1_human PARP1, P09874 (P09874 whole entry): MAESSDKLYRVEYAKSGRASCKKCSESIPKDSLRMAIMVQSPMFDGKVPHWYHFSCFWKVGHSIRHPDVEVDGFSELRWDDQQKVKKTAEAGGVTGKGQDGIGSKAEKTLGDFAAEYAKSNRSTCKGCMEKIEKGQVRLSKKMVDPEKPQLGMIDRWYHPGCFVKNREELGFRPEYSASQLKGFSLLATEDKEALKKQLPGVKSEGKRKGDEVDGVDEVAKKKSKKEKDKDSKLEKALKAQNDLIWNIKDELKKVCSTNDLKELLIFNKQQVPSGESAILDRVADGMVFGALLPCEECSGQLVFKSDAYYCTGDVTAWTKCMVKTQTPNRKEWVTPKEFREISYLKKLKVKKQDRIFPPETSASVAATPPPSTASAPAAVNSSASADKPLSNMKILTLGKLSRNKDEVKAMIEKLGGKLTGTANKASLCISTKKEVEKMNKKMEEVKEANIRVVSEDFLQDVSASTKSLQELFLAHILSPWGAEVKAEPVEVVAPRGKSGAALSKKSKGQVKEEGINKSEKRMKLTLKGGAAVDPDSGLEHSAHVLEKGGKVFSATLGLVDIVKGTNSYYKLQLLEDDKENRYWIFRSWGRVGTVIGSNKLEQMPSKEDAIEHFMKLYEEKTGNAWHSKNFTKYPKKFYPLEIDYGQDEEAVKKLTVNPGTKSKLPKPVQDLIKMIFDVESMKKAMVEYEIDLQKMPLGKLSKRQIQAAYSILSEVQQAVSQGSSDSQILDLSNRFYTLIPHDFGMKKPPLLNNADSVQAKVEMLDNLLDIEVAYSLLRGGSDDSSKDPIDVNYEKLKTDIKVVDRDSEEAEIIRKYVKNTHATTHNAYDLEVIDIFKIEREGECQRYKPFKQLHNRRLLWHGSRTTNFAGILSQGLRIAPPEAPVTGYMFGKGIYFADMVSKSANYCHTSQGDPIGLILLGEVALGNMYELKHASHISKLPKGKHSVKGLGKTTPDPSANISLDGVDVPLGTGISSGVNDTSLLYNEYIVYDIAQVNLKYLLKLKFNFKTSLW
For the variant H54A, the “effect of a mutation on the interaction” value is on record as “with no effect”.

(Values after IntAct's records for PubMed 21799911.)
